Assay results from US20220265772A1, “USES OF DAN FAMILY BMP ANTAGONISTS FOR INHIBITING OCULAR NEOVASCULARIZATION AND TREATING OCULAR CONDITIONS” (9636137 Canada Inc., priority 2019, published 2022).

Columns and labels:
[1] = system: LDHA; test: AMPLI-seq transcriptome analysis of HUVECs; type: cell-based, human; details: HUVECs treated for 6 and 16 h
Method: FIG. 7 is a panel with a schematic and graphs showing that DAND5 modifies the metabolic transcriptional program in cultured endothelial cells. HUVECs were treated for 6 and 16 h with either PBS or DAND5, before RNA extraction. RNA was reverse-transcribed and cDNA amplified using IonTorrent Ampliseq™ Transcriptome Human Gene Expression kit. FIG. 7A: Heat map of metabolism-related genes.
We performed AMPLI-seq analysis of HUVECs exposed or not to recombinant DAND5. […] Lactate de-hydrogenase A (LDHA) regulates lactate metabolism during anaerobic respiration.

[2] = system: choroidal neovascularization; test: Laser-induced choroidal neovascularization (CNV); type: in vivo, mouse
Method: Three-month-old C57BL/6J mice were anesthetised with a ketamine/xylazine mix prior to applying a photocoagulating laser (400 mW intensity, 0.05 s exposure time). Four spots were burned around the optical nerve. Mice received 100 ng of recombinant human DAND5 intravitreally or similar volume of vehicle in the contralateral eye. Eyes were enucleated after 14 days and processed for immunostaining.
Ocular globes were initially fixed for 15 min in 4% paraformaldehyde (PFA). Retinas or choroids were collected after eyes dissection in PBS and blocked 1 h in PBS 3% BSA 0.1% Triton X-100™. Fixation was prolonged in 1% PFA overnight for choroid extraction or eyes sectioning. […] Quantitative analysis of tufts, vaso-obliterated or vessel areas were performed using imageJ/Swift_NV™ as previously described (1). Neovascular tuft formation was quantified by comparing the number of pixels in the affected areas with the total number of pixels in the retina. The avascular area in the retina was measured in the same way using an anti-DAND5/COCO polyclonal goat IgG antibody (AF3047, R&D systems).
The effects of DAND5 on choroidal neovascularization (CNV) were also evaluated by subjecting mice to laser-induced CNV, a model which recapitulates the CNV occurring in wet AMD patients. […]

B1: DAND5: human recombinant DAND5/COCO biologically active fragment produced in E. coli, predicted 18.2 kDa monomer, R&D systems 3047-CC-050 (protein)
chain: MRPEPQSPRPQSWAAANQTWALGPGALPPLVPASALGSWKAFLGLQKARQLGMGRLQRGQDEVAAVTLPLNPQEVIQGMCKAVPFVQVFSRPGCSAIRLRNHLCFGHCSSLYIPGSDPTPLVLCNSCMPARKRWAPVVLWCLTGSSASRRRVKISTMLIEGCHCSPKA
[1]
  LDHA expression: down-regulation of LDHA
[2]; OIR and laser-induced CNV together
  inhibitory effect on retinal and choroidal neovascularization compared with Flt1Fc: significantly better than VEGF inhibition with Flt1Fc
[2]; laser impact, intravitreal delivery, 14 days, compared with controls
  area of CNV: significant decrease in the area of CNV
